These results are taken from article PMC5714250.

In one data set the target is T1, APUM23 85-655 (WT) (Arabidopsis thaliana, UniProt Q9C552 85-655).
T1 sequence: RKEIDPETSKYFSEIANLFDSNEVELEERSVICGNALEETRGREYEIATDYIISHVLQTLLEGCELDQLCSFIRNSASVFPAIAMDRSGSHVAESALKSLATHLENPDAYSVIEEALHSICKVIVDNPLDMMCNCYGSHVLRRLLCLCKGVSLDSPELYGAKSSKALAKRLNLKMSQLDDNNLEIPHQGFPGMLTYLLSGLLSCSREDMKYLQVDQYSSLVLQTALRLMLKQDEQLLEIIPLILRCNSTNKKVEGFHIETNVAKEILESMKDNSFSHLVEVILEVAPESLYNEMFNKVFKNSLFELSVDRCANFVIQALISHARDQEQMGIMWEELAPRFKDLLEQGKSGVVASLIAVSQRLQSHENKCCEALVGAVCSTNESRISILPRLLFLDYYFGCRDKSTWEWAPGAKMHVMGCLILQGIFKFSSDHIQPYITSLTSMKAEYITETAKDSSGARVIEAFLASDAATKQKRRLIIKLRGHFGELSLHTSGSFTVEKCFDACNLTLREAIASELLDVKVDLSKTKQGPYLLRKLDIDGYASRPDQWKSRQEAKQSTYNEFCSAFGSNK
Nature of the data set: X-ray crystallography.

For a further data set, the target named is T2, APUM23Delete (Arabidopsis thaliana, UniProt Q9C552 85-655, del235-270).
T2 sequence: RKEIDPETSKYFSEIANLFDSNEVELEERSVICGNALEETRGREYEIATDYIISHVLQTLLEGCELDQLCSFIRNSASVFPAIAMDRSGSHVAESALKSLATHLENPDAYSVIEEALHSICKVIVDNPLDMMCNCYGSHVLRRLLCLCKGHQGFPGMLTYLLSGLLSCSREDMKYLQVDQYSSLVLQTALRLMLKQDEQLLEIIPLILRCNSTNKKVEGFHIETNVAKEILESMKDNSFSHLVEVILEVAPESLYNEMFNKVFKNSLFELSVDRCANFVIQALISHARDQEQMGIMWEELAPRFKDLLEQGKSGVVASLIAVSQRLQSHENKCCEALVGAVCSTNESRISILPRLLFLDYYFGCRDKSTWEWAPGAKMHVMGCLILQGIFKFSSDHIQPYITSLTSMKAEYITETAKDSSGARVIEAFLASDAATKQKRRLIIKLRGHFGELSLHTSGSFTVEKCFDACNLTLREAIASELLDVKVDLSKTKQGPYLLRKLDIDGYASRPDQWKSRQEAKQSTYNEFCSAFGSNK
Nature of the data set: X-ray crystallography.

Consider GGAGUUGACGG (ssRNA) [11-mer A+3G RNA], for which the binding result with APUM23 85-655 (WT) is on record as “binds”. Regarding GGAAUUGACGG (ssRNA) [11-mer WT RNA (18S rRNA 1141-1151)], in the data set with APUM23Delete, the binding result is reported as “binds”.
